The experiment has as its target T1, GST-tagged eEF1A1 (rat, UniProt P62630 1-462).
T1 construct: eEF1A1, rat, open reading frame BC128723.1; Cloned into pGEX-4T1, which should place GST at the N-terminus (surmise); also called GST-eEF1A1
T1 sequence (looked up): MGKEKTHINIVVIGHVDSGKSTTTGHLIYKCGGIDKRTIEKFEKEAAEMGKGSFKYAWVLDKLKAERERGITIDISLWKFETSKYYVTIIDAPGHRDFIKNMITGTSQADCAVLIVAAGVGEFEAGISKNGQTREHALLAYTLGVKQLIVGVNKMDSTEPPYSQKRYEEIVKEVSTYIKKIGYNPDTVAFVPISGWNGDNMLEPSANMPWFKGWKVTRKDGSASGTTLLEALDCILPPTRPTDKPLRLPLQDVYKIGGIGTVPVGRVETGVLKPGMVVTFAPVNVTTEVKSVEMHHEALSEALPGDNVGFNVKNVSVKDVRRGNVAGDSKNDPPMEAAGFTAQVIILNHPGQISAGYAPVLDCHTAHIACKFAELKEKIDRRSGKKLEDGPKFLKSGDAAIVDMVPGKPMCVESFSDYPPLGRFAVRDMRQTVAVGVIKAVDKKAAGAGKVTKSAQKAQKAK
The experiment can be described thus: pull-down; GST or GST-eEF1A1 on glutathione agarose beads, purified eEF1B2-His; purified TIP30-His added in increasing amounts. As to conditions: both partners purified.

B1: purified eEF1B2-His (natural protein, rat, UniProt A6IPG1 1-225, looked up)
chain: MGFGDLKTPAGLQVLNDYLADKSYIEGYVPSQADVAVFEAISGPPPADLCHALRWYNHIKSYEKEKASLPGVKKSLGKYGPVSVADTTGSGAADAKDDDDIDLFGSDDEEESEDAKRLREERLAQYESKKAKKPAVVAKSSILLDVKPWDDETDMTKLEECVRSIQADGLVWGSSKLVPVGYGIKKLQIQCVVEDDKVGTDMLEEQITAFEDYVQSMDVAAFNKI
notes: eEF1B2, rat, open reading frame NM_001108799.2
For the molecule B1, the binding result is “binds”.

Values taken from paper PMC6783653, “TIP30 counteracts cardiac hypertrophy and failure by inhibiting translational elongation” (EMBO Molecular Medicine, 2019).
